Reference: article PMC11147780, “Vaccination induces broadly neutralizing antibody precursors to HIV gp41” (Nature Immunology, 2024)
Positions count from the first letter of the chain named.

T1: 10E8-GT10.2 epitope scaffold (designed scaffold 10E8-GT10.2 with …, N-linked glycosylation sites added (positions not given))
T1 chain: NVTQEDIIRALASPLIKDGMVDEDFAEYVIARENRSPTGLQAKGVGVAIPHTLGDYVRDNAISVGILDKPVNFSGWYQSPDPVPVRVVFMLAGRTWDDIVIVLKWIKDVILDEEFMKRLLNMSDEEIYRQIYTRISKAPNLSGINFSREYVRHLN

B1: NHP-10E8_MPER-GT10v55_W21-01 (antibody, V domains shown)
VH: EVRLVESGGGLVQPGGSLRLSCAASGFTFSDYYMSWVRQAPGKGPEWVGFIRNKANGGTAEYAASVKGRFTISRDDSKSIASLQMNSLKTEDTAVYYCARAPLHYNFWSGYYTDYGLDSWGQGVVVTVSS
VL: DIVMTQSPDSLAVSLGERVTINCKSSQSLLYSSNNKNYLAWYQQKPGQAPKLLIYWASTRESGVPNRFSGSGSGSDFTLTISGLQAEDVAVYYCQQYYSTPHSFGQGTKVEIK
B2: NHP-10E8_MPER-GT10v55_W21-06 (antibody, V domains shown)
VH: B1 VH with A101E, P102K, L103V, H104Y, Y112L, T113E, D114N
VL: DVVMTQSPLSLPITPGQPASISCRSSQSLVYSDGKTYLNWYQQKPGQPPRRLIYQVSNRDSGVPDRFSGSGAGTDFTLKISRVEAEDVGVYYCMQGTHLPYSFGQGTKVEIK
B3: NHP-10E8_MPER-GT10v55_W21-07 (antibody, V domains shown)
VH: EVQLVESGGGLVQPGGSLRLSCAASGFTFSDYAMDWVRQAPGKGLEWVGFIRSKAYGGTAEYAASVKGRFTISRDDSKNTAYLQMSSLKTEDTAVYYCTRAARGYNFWSGYYTGYGLDSWGQGVVVTVSS
VL: EIVMTQSPATLSLSPGERATLSCRTSQSVSSYVAWYQQKPEQAPRLLIYGASSRATGIPDRFSGGGSGTDFTLTISSLEPEDFAVYYCQQYSNWPYSFGQGTKVEIK
B4: NHP-10E8_MPER-GT10v55_W26-07 (antibody, V domains shown)
VH: QVQLQESGPGLVKPSETLSLTCAVSGGSFSSYWWGWIRQTPGKGLEWIGSIYGSSGTTEYNPSHKSRATISRDTSENQFSLKLSSVTAADTAVYYCARSGEWPYNFWGGTHNPPHWYFDLWGPGTPIIISS
VL: DVVMTQSPLSLSITPGQPASISCRSSHSLIHSNGNTYLSWYQQKPGQPPRRLIYEVSKQDSGVPERFSGSGAGTDFTLKISRVEAEDVGIYYCGQGTHLPLTFGPGTKLDIK
B5: NHP-10E8_MPER-GT10v55_W10-10 (antibody, V domains shown)
VH: EVQVVESGGGLVQPGGSLRLSCAASGFTFSDYAMDWVRQAPGKGLEWVGFIRSKDYGGTAEYAASVKGRFTISRDDSKNTAYLQMSSLKTEDTAVYYCTRDRRYYSFWSGYDRGWYFDLWGQGALVTVSS
VL: DIVMTQTPLSLPVTLGEPASISCRSSQSLLNSEDGNTSLAWYLQKPGQSPQLLIYEVSNRASGVPDRFSGSGSDTDFTLKISRVEAEDVGVYYCMQPLEFPPTFGQGTKVEIK
B6: NHP-10E8_MPER-GT10v55_W26-04 (antibody, V domains shown)
VH: EVQLVESGGGLVQPGGSLRLSCAASGFTFSSYGMHWVRQAPGKGLEWVAVIWYDGSKKYYADSVKDRFTISRDNSKNMLYLQMNNLKLEDTAVYYCARGGAYYNFWSGYYTLLNRFDVWGPGVLVTVSS
VL: B5 VL with L15P, N31D, S38Y, A40D, P97G, P102Y, T103S
B7: MPER18_d21_45.2_v55_m15_D04 (antibody, V domains shown)
VH: QVQLQESGPGLVKPSETLSLTCTVSGGSISGYYWSWIRQPPGKGLEWIGYIYYSGSTNYNPSLKSRVTISVDTSKNQFSLKLSSVTAADTAVYYCAREPPYYDFWSGLSMGVGAFDFWGQGTMVTVSS
VL: DVLMTQSPLSLPVSLGDQASISCRSSQSIVHSNGNTYLEWYLQKPGQSPKLLIYKVSNRFSGVPDRFSGSGSGTDFTLRISRVEAEDLGVYYCFQGSHVPCTFGGGTKLEIK
B8: MPER18_d21_45.2_v55_m5_D04 (antibody, V domains shown)
VH: B7 VH with G31S, Y50H, S65G, S83T, F117I
VL: B7 VL with S7T, N35Y, L38V, S68T, R79K, E86A, C101Y
B9: MPER18_d21_45.2_v55_m15_D07 (antibody, V domains shown)
VH: B7 VH with K13R, G31S, S83N, A96T, G107E, M110L, F117I
VL: B7 VL with V2I, L3V, S28T, N35Y, R79K, C101W
B10: MPER18_d21_45.2_v55_m15_E09 (antibody, V domains shown)
VH: B7 VH with G31N, I51F, S56T, F117I
VL: B7 VL with S7T, H31Y, N35Y, R79K, C101W
B11: MPER18_d21_45.2_v55_m5_E10 (antibody, V domains shown)
VH: B7 VH with T23S, Y52F, S83T, F117I
VL: B7 VL with V2I, L3V, S7T, R24S, S28N, N35Y, R79K, C101Y
B12: NHP-10E8_MPER-GT10v55_W26-01 (antibody, V domains shown)
VH: QLQLQESGPGLVKPSETLSLTCAVSGGSISSNYWSWIRQPPGKGLEWIGRISGSGGSTDYNPSLKSRVTISTDTSKNQFSLKLSSVTAADTAVYYCAGNSHYYNFWSGYYGDNSLDVWGRGVLVTVSS
VL: SYDVTQPRSVSVSPGQTARITCGGDNIGSKNVHWYQQKPAQAPVLVIYYDSDRPSGIPERFSGSNSGNTATLTISGVEAGDEADYYCQVWDSSSDHRLFGGGTRLTV
B13: NHP-10E8_MPER-GT10v55_W21-02 (antibody, V domains shown)
VH: EVQLVESGGGLVQPGGSLRLSCAASGFTFSNYWMSWVRQAPGKGLEWVGFIKNKADGGTAAYAESVKGRFTISRDDSKNTLYLQMNSLKTEDTAVYYCARAGAPYYNFWSGYYESYDAFDFWGQGLRVTVSS
VL: QPVLTQPTSLSASPGASARLTCTLRSGISVGSYRIFWYQQKPGSPPRYLLNYHTDSDKHQGSGVPSRFSGSKDASANAGILLISGLQSEDEADYYCMIWHNNAVLFGGGTRLTV
B14: NHP-10E8_MPER-GT10v55_W26-02 (antibody, V domains shown)
VH: EVQLVESGGGLAKPGGSLRLSCAASGFTFSDYYMDWVRQAPGKGLEWVSRISNGGGSTWYADSVKGRFTISRENAKNTLYLQMNSLRAEDTAVYYCASELSYYNFWSGYGASYGLDSWGQGVVVTVSS
VL: B13 VL with V104Y, L105I, G108A
B15: NHP-10E8_MPER-GT10v55_W21-05 (antibody, V domains shown)
VH: EVRLVESGGGLVQPGGSLRLSCAASGFTFSDYYMSWVRQAPGKGPEWVGFIRNKANGGTAEYAASVKGRFTISRDDSKSIASLQMNSLKTEDTAVYYCARDTYTYNFWSGYYRSNSLDVWGRGVLVTVSS
VL: SYDLTQPPSVSVSPGQTARITCGGDNIGSEAVHWYQQKPPQAPVQVIYSDSERPSGIPERFSGSKSGNTATLTISGVEAGDEADYYCQVWDISSDHYIFGAGTRLTV
B16: NHP-10E8_MPER-GT10v55_W10-11 (antibody, V domains shown)
VH: EVQLVESGGGLVQPGGSLRLSCAASGFAFSDYTMDWVRQAPGKGLEWVGFIRSRDYGGKVDYAASVKGRFTISRDDSKNTAYLHMSSLKTEDTAVYYCTRSKRHYSFWSGDYPHYGLDSWGQGVVVTVSS
VL: QSVVTQPPSVSGDPGQRVTIYCTGNSSNIGGYDVYWYQQVPGTAPKLLMYENNKRPSGVSDRFSGSKSGTSASLTITGLQSEDEAEYYCETWDNSLNGRVFGGGTRLTV
B17: NHP-10E8_MPER-GT10v55_W10-12 (antibody, V domains shown)
VH: EVHLVESGGGLVQPGGSLRLSCAASGFTFSDYAMDWVRQAPGKGLEWVGFIGSKDYGGTVEYAASVKGRFTISRDDLKNTAYLQMSRLKTEDTAVYYCTRSKTCYSFWSGYYPHYGLDSWGQGVVVTVSS
VL: B16 VL with V4L, Y21S, Y32F, Q39L, V40L, M49I, N53T, V59I, V100L
B18: NHP-10E8_MPER-GT10v55_W21-03 (antibody, V domains shown)
VH: EVHLVESGAGLVQPGGSLRLSCAASGFTFRNSWMSWVRQAPGKGLEWIARIKRKADGETTDYAASVKGRFTLSRDDSKNTVYLQMDSLKTEDTAVYYCTTDQGYYNFWSGNYDYYGLDSWGQGVVVAVSS
VL: DIQMTQSPSSLSAFVGDRVTITCRASQGISTHLNWYQQKPGKAPKRLIYTSSNLETGVPSRFSGSGSGTDFTLTISSLQPEDFATYYCLQYNSDPWTFGQGTKVEIK

Target: T1, 10E8-GT10.2 epitope scaffold

B1 and B2 are within 1.5-fold of each other in Kd: 6750 nM for the first, 5920 nM for the second.

Compared with B3, B4 is 230-fold lower in Kd: 7640 nM for the first, 32.6 nM for the second. The second binds more tightly here.

Going from B5 to B6, the Kd rises from 95.6 nM to 5050 nM (53-fold).

Compared with B7, B8 is 31-fold lower in Kd: 21.9 nM for the first, 0.714 nM for the second.

First: B9
Second: B10
The Kd of the first is 5.3-fold lower: 2.79 nM for the first, 14.8 nM for the second.

Compared with B11, B12 is 6500-fold higher in Kd: 0.571 nM for the first, 3690 nM for the second.

B13 and B14 are within 1.5-fold of each other in Kd: 4560 nM for the first, 3090 nM for the second.

Going from B15 to B16, the Kd rises from 2410 nM to 4160 nM (1.7-fold). The first binds more tightly here.

Going from B17 to B18, the Kd rises from 752 nM to 8320 nM (11-fold). The first binds more tightly here.
